Where “and” joins values, the source holds several entries; their conditions need not be identical. Equal entries are not always repeated. Values belong to the binder of their own block, whether it stands above or below them.
Assays:
Conditions in all cases: both partners purified
[1] = biological target: T1, biotinylated integrin β3 transmembrane and cytoplasmic tail polypeptide (β3-TM–CT) in nanodiscs (UniProt O54890 715-787, biotin (biotin-maleimide)); assay: flow cytometry-based reporter-displacement assay (FC-RDA) on beads; biotinylated TM–CT in PIP2-containing nanodiscs on streptavidin beads; reporter 565–THD1-K402E, unlabelled competitor titrated; IC50 of individual experiments
T1 construct: integrin β3 TM and CT, residues 715-787; embedded in MSP2N2 nanodiscs with 10% PIP2 or PIP3 and 90% DMPC; held on streptavidin beads; also called b3; source: E. coli BL21 (DE3) Rosetta 2, inclusion bodies, purified (IMAC, cation exchange)
T1 sequence (looked up): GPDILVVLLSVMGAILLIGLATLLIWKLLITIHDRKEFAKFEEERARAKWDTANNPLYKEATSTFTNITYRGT

[2] = biological target: T2, biotinylated integrin β1 transmembrane and cytoplasmic tail polypeptide (β1-TM–CT) in nanodiscs (UniProt P09055 726-798, biotin (biotin-maleimide)); assay: as above
T2 construct: integrin β1 TM and CT, residues 726-798; embedded in MSP2N2 nanodiscs with 10% PIP2 or PIP3 and 90% DMPC, on average one TM–CT per nanodisc; held on streptavidin beads; also called b1; source: E. coli BL21 (DE3) Rosetta 2, inclusion bodies, purified (IMAC, cation exchange)

[3] = biological target: T2, biotinylated integrin β1 transmembrane …; assay: flow cytometry-based reporter-displacement assay (FC-RDA) on beads; biotinylated TM–CT in 10% PIP2/90% DMPC nanodiscs on streptavidin beads; reporter 50 nM 647–KIND2, unlabelled competitor titrated; 20 mM Tris pH 7.5, 200 mM NaCl, room temperature; IC50 of individual experiments; charged lipids contribute to the binding
[4] = biological target: T1, biotinylated integrin β3 transmembrane …; assay: flow cytometry-based reporter-displacement assay (FC-RDA) on beads; biotinylated TM–CT in 10% PIP3/90% DMPC nanodiscs on streptavidin beads; reporter 100 nM 565–THD1, unlabelled competitor titrated; 20 mM Tris pH 7.5, 200 mM NaCl, room temperature; IC50 of individual experiments; charged lipids contribute to the binding
[5] = biological target: T1, biotinylated integrin β3 transmembrane …; assay: flow cytometry-based reporter-displacement assay (FC-RDA) on beads; biotinylated TM–CT in 10% PIP3/90% DMPC nanodiscs on streptavidin beads; reporter 50 nM 647–KIND2, unlabelled competitor titrated; 20 mM Tris pH 7.5, 200 mM NaCl, room temperature; IC50 of individual experiments; charged lipids contribute to the binding
[6] = biological target: T1, biotinylated integrin β3 transmembrane …; assay: flow cytometry-based reporter-displacement assay (FC-RDA) on beads; biotinylated TM–CT in 10% PIP3/90% DMPC nanodiscs on streptavidin beads; reporter 100 nM 565–THD1, unlabelled competitor titrated; 20 mM Tris pH 7.5, 200 mM NaCl, room temperature; IC50 of individual experiments; charged lipids contribute to the binding; remark: listed apart in the source
[7] = biological target: T2, biotinylated integrin β1 transmembrane …; assay: as above
[8] = biological target: T2, biotinylated integrin β1 transmembrane …; assay: flow cytometry-based reporter-displacement assay (FC-RDA) on beads; biotinylated TM–CT in 10% PIP2/90% DMPC nanodiscs on streptavidin beads; reporter 100 nM 565–THD1, unlabelled competitor titrated; 20 mM Tris pH 7.5, 200 mM NaCl, room temperature; IC50 of individual experiments; charged lipids contribute to the binding
[9] = biological target: T1, biotinylated integrin β3 transmembrane …; assay: flow cytometry-based reporter-displacement assay (FC-RDA) on beads; biotinylated TM–CT in PIP3-containing nanodiscs on streptavidin beads; reporter 647–KIND2-Y13A, unlabelled competitor titrated; IC50 of individual experiments
[10] = biological target: T2, biotinylated integrin β1 transmembrane …; assay: as above
[11] = biological target: T1, biotinylated integrin β3 transmembrane …; assay: flow cytometry-based reporter-displacement assay (FC-RDA) on beads; biotinylated TM–CT in PIP2-containing nanodiscs on streptavidin beads; reporter 647–KIND2-Y13A, unlabelled competitor titrated; IC50 of individual experiments
[12] = biological target: T2, biotinylated integrin β1 transmembrane …; assay: as above
[13] = biological target: T1, biotinylated integrin β3 transmembrane …; assay: flow cytometry-based reporter-displacement assay (FC-RDA) on beads; biotinylated TM–CT in 10% PIP2/90% DMPC nanodiscs on streptavidin beads; reporter 50 nM 647–KIND2, unlabelled competitor titrated; 20 mM Tris pH 7.5, 200 mM NaCl, room temperature; IC50 of individual experiments; charged lipids contribute to the binding
[14] = biological target: T2, biotinylated integrin β1 transmembrane …; assay: as above; remark: listed apart in the source
[15] = biological target: T2, biotinylated integrin β1 transmembrane …; assay: flow cytometry-based reporter-displacement assay (FC-RDA) on beads; biotinylated TM–CT in 10% PIP3/90% DMPC nanodiscs on streptavidin beads; reporter 50 nM 647–KIND2, unlabelled competitor titrated; 20 mM Tris pH 7.5, 200 mM NaCl, room temperature; IC50 of individual experiments; charged lipids contribute to the binding

T2 sequence (P09055 726-798): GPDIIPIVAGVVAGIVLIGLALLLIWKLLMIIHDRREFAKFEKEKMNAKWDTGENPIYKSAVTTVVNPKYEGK

IC50 [1]: 116 nM and 65 nM
IC50 [2]: 514 nM and 512 nM and 396 nM and 487 nM
IC50 [3]: 151 nM and 155 nM and 176 nM and 77 nM
IC50 [4]: 760 nM and 573 nM and 678 nM
IC50 [5]: 79 nM and 90 nM and 69 nM
B1: kindlin-2 (KIND2) (natural protein, UniProt Q8CIB5 1-680, looked up)
chain: MALDGIRMPDGCYADGTWELSVHVTDLNRDVTLRVTGEVHIGGVMLKLVEKLDVKKDWSDHALWWEKKRTWLLKTHWTLDKCGIQADAKLQFTPQHKLLRLQLPNMKYVKVKVNFSDRVFKAVSDICKTFNIRHPEELSLLKKPRDPTKKKKKKLDDQSEDEALELEGPLIMPGSGSIYSSPGLYSKTMTPTYDAHDGSPLSPTSAWFGDSALSEGNPGILAVSQPVTSPEILAKMFKPQALLDKAKTNQGWLDSSRSLMEQDVKENEALLLRFKYYSFFDLNPKYDAIRINQLYEQAKWALLLEEIECTEEEMMMFAALQYHINKLSIMTSENHLNNSDKEVDEVDAALSDLEITLEGGKTSTILGDITSIPELADYIKVFKPKKLTLKGYKQYWCTFKDTSISCYKSREESSGTPAHQLNLRGCEVTPDVNISGQKFNIKLLIPVAEGMNEIWLRCDNEKQYAHWMAACRLASKGKTMADSSYNLEVQNILSFLKMQHLNPDPQLIPDQITTDVNPECLVSPRYLKKYKSKQITARILEAHQNVAQMSLIEAKMRFIQAWQSLPEFGITHFIARFQGGKREELIGIAYNRLIRMDASTGDAIKTWRFSNMKQWNVNWEIKMVTVEFADEVRLSFICTEVDCKVVHEFIGGYIFLSTRAKDQNESLDEEMFYKLTSGWV
notes: kindlin-2 (KIND2), recombinant; with the F1 loop and the PH domain (unlike ΔKIND2); source: E. coli Rosetta, purified (IMAC, SEC); not shown: His10-SUMO, N-terminal, cleaved

IC50 [6]: 176 nM and 234 nM and 205 nM and 83 nM
IC50 [7]: 168 nM and 223 nM and 116 nM
IC50 [8]: 203 nM and 479 nM and 290 nM
IC50 [9]: 121 nM and 167 nM and 233 nM
IC50 [10]: 56 nM and 119 nM and 60 nM
IC50 [11]: 112 nM and 238 nM and 305 nM
IC50 [12]: 78 nM and 91 nM and 124 nM
B2: KIND2 Y13A (natural protein, UniProt Q8CIB5 1-680, looked up)
chain: MALDGIRMPDGCAADGTWELSVHVTDLNRDVTLRVTGEVHIGGVMLKLVEKLDVKKDWSDHALWWEKKRTWLLKTHWTLDKCGIQADAKLQFTPQHKLLRLQLPNMKYVKVKVNFSDRVFKAVSDICKTFNIRHPEELSLLKKPRDPTKKKKKKLDDQSEDEALELEGPLIMPGSGSIYSSPGLYSKTMTPTYDAHDGSPLSPTSAWFGDSALSEGNPGILAVSQPVTSPEILAKMFKPQALLDKAKTNQGWLDSSRSLMEQDVKENEALLLRFKYYSFFDLNPKYDAIRINQLYEQAKWALLLEEIECTEEEMMMFAALQYHINKLSIMTSENHLNNSDKEVDEVDAALSDLEITLEGGKTSTILGDITSIPELADYIKVFKPKKLTLKGYKQYWCTFKDTSISCYKSREESSGTPAHQLNLRGCEVTPDVNISGQKFNIKLLIPVAEGMNEIWLRCDNEKQYAHWMAACRLASKGKTMADSSYNLEVQNILSFLKMQHLNPDPQLIPDQITTDVNPECLVSPRYLKKYKSKQITARILEAHQNVAQMSLIEAKMRFIQAWQSLPEFGITHFIARFQGGKREELIGIAYNRLIRMDASTGDAIKTWRFSNMKQWNVNWEIKMVTVEFADEVRLSFICTEVDCKVVHEFIGGYIFLSTRAKDQNESLDEEMFYKLTSGWV
notes: kindlin-2 (KIND2), recombinant, Y13A; source: E. coli Rosetta, purified (IMAC, SEC); not shown: His10-SUMO, N-terminal, cleaved

IC50 [13]: 186 nM and 206 nM and 276 nM and 136 nM
IC50 [14]: 271 nM and 366 nM and 201 nM and 258 nM
IC50 [15]: 332 nM and 291 nM and 217 nM and 447 nM
B3: THD1 K402E (domain or fragment, UniProt P26039 1-405, looked up)
chain: MVALSLKISIGNVVKTMQFEPSTMVYDACRMIRERIPEALAGPPNDFGLFLSDDDPKKGIWLEAGKALDYYMLRNGDTMEYRKKQRPLKIRMLDGTVKTIMVDDSKTVTDMLMTICARIGITNHDEYSLVRELMEEKKDEGTGTLRKDKTLLRDEKKMEKLKQKLHTDDELNWLDHGRTLREQGVEEHETLLLRRKFFYSDQNVDSRDPVQLNLLYVQARDDILNGSHPVSFDKACEFAGFQCQIQFGPHNEQKHKAGFLDLKDFLPKEYVKQKGERKIFQAHKNCGQMSEIEAKVRYVKLARSLKTYGVSFFLVKEKMKGKNKLVPRLLGITKECVMRVDEKTKEVIQEWSLTNIKRWAASPKSFTLDFGDYQDGYYSVQTTEGEQIAQLIAGYIDIILKEKKS
notes: talin-1 (TLN1) head domain, residues 1-405, K402E; source: E. coli (DE3) Rosetta 2, purified (IMAC, SEC); not shown: His10-SUMO, N-terminal, cleaved

From PMC10716038, “Talin and kindlin use integrin tail allostery and direct binding to activate integrins” (Nature Structural & Molecular Biology, 2023)
